Biological target: T1, Flag-IRF3 (human, UniProt Q14653 1-427)
T1 construct: not shown: Flag, N-terminal, kept
T1 sequence (looked up): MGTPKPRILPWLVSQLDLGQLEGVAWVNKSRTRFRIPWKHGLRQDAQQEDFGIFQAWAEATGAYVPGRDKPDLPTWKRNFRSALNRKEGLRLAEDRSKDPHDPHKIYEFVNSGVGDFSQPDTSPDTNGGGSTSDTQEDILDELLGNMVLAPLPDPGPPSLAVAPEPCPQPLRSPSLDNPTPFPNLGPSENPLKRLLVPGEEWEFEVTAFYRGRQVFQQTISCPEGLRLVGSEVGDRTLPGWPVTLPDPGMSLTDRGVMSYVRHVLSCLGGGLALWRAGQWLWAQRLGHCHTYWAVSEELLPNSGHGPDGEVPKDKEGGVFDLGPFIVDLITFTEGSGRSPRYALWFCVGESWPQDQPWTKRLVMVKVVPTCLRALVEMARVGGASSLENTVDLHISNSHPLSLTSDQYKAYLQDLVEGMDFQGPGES
Assay: pull-down; lysates of 293T cells with ectopic Flag-TBK1 or Flag-IRF3 incubated with GST or the GST-ERRα fusion protein
Conditions: one partner purified

B1: GST-ERRα fusion protein (natural protein, UniProt P11474 1-423, looked up)
chain: MSSQVVGIEPLYIKAEPASPDSPKGSSETETEPPVALAPGPAPTRCLPGHKEEEDGEGAGPGEQGGGKLVLSSLPKRLCLVCGDVASGYHYGVASCEACKAFFKRTIQGSIEYSCPASNECEITKRRRKACQACRFTKCLRVGMLKEGVRLDRVRGGRQKYKRRPEVDPLPFPGPFPAGPLAVAGGPRKTAAPVNALVSHLLVVEPEKLYAMPDPAGPDGHLPAVATLCDLFDREIVVTISWAKSIPGFSSLSLSDQMSVLQSVWMEVLVLGVAQRSLPLQDELAFAEDLVLDEEGARAAGLGELGAALLQLVRRLQALRLEREEYVLLKALALANSDSVHIEDAEAVEQLREALHEALLEYEAGRAGPGGGAERRRAGRLLLTLPLLRQTAGKVLAHFYGVKLEGKVPMHKLFLEMLEAMMD
notes: also called estrogen-related receptor α
  binding result: binds
